These results are taken from patent US11733246B2, “Compositions, imaging, and therapeutic methods targeting folate receptor 1 (FOLR1)” (Indi Molecular, Inc., priority 2020, dated 2023).

A short description of series [1]: Plasma protein binding (equilibrium dialysis), mouse. It is filed as in vitro ADME, CD-1 mouse. The protocol: (§1) HTD 96 a/b regenerated cellulose membrane strips with mass cutoff of 12-14 kDa were soaked in ultra-pure water at room temperature for 1 hour. Each swelled membrane was then soaked in 20:80 ethanol:water for 20 minutes.
(§2) Just prior to the experiment, the membranes were re-soaked in ultra-pure water. Plasma was prepared by thawing under cold water. The plasma was centrifuged to remove any clots and pH was adjusted to 7.0-8.0. Test articles and control compounds were diluted to 2 μM. The dialysis device was loaded by transferring 150 μL of the test article (in triplicate) to the donor side. The dialysis device was placed in a humidified incubator at 37° C. with 5% CO2 in a shaking platform that rotated slowly for 4 hours. After incubation, 50 μL of the supernatant was taken from both sides and analyzed by LC-MS/MS.
(§3) To optimize the albumin binding potential of the heterobiligand, a plasma protein binding (PPB) experiment was performed. This experiment measured the amount of test article bound and free after equilibrating with plasma. Compound #6305 (folate-hshta-Lys(MPBA)-Gly-Phe-Lys(DOTA) (SEQ ID NO:6)), which contains the MPBA albumin binder, was 96.26% bound to mouse plasma and 98.34% bound to human plasma. […] In mouse and human plasmas 99.6% and 99.5% was bound, respectively.
On the technique in general: In equilibrium dialysis free small molecules cross a membrane that holds back macromolecules.

Series [2] in a line: Plasma protein binding (equilibrium dialysis), human. The series is classed as in vitro ADME. The method, then:
as §1, §2, §3

A further series can be described thus: Plasma stability, human. Conditions: Hu, 2 μM, 37° C.
A further series can be described thus: Plasma stability, mouse. The following applies: Mu, 2 μM, 37° C.
A short description of series [3]: Maximum tolerated dose / tolerability study.
Procedure: Animals were monitored for signs of toxicity and weighed twice weekly. […] The second and third doses were administered 21 days following the previous dose.
Two separate MTD experiments were undertaken. […] A second experiment interrogated lower doses.
Mouse body weight and behavior were monitored. […] The second and third doses were administered 21 days following the previous dose.
Series [4] can be described thus: Gamma counting of tissue radioactivity. It is filed as in vivo, mouse. The following applies: for kidney radioactivity / liver radioactivity / tumor radioactivity: Day 28 post-injection. The text has this: 7 days after Lu177-#6305 injection, the 29.6 MBq group lost 20% body weight. These mice were sacrificed. Tissues and plasma were collected for evaluation of radioactivity by gamma counting. The toxicity may have resulted from its accumulation in the kidneys and liver (FIG. 28). At study endpoint (Day 28 post-injection), plasma, tumors, kidneys, lungs, hearts, livers, and muscles from 9.25 MBq and 14.8 MBq treatment groups were collected for evaluation of radioactivity by gamma counting (FIG. 29).

Another series has as its system OVCAR3 xenografts. Put plainly: 177Lu FOLR1 radioligand therapy in OVCAR3 xenograft model. It is filed as in vivo, mouse. Conditions: for body weight change: single dose. The method, then: Water and food were provided ad libitum. […] Tumor growth was monitored by caliper measurements.
OVCAR3 tumor bearing mice were used to study FOLR1-directed radioligand therapy (RLT) for treatment of ovarian cancer. Animals were administered a single dose of heterobiligand (vehicle control) or 111, 37, 18.5, 9.25, or 3.7 MBq [^177Lu]DOTA-labeled heterobiligand. Mice received the dose intravenously (i.v.) via the tail vein. To monitor the effect of the RLT, tumor size measurements were taken twice weekly and body weights were measured.
The engraftment was allowed to expand until palpable tumor sizes ranging in size from 218-384 mm^3 were detected. […] These observed effects were consistant with radiation overdosing. […] The best response was observed using 9.25 MBq Lu-177 Heterobiligand (compound #2809).
Single dose treatments at 18.5 MBq/nmol specific activity. OVCAR3 mouse model was used. 10^7 cell tumors were implanted in the mice one month before administration of ^177Lu-#6305. Five mice each were administered Cold #6305, 9.25 MBq Lu177-#6305, and 14.8 MBq Lu177-#6305, and two mice were administered 29.6 MBq Lu177-#6305. Tumor growth and body weight were then monitored.
Female NSG mice were implanted subcutaneously with OVCAR3 cells. Once tumors reached volumes of 200 mm^3, the animals were treated with 177-Lu 7327. Three treatment arms of 9.25 MBq, 14.8 MBq, and 29.6 MBq were studied.
Female NSG mice were implanted subcutaneously with human OVCAR3 (FOLR+) ovarian cancer cells. Once tumors reached volumes of 200 mm^3, the animals were treated with Indi ^177Lu-7327. One treatment arm of 74 MBq and a control group of 0 MBq were studied (FIGS. 41 and 38A). […] The second dose was administered 21 days following the first dose. Statistically significant differential between treated and control was reached 24 days post-injection (three days following the second dose) for the 74 MBq arm. P values (* for p≤0.05, ** for p≤0.01) were determined by ordinary one-way ANOVA with Tukey's multiple comparisons test.

Series [5] relates to OVCAR3 (FOLR1+) tumor bearing NSG mice. Briefly: in vivo. The following applies: mouse. The protocol: Female, 7-week-old NSG mice were housed under pathogen-free conditions. Water and food were provided ad libitum. To create mice with FOLR1+ ovarian xenograft tumors, mice were injected subcutaneously with OVCAR3 cells (1×10^7 cells per mouse) resuspended in 50% Matrigel in PBS into the shoulder region. Tumor growth was monitored by caliper measurements. OVCAR3 is a human ovarian adenocarcinoma known to over-express FOLR1.
^68Ga PET imaging was used to study in vivo biodistribution of heterobiligands in non-tumor bearing (healthy) mice and OVCAR3 tumor bearing mice. 100-200 μCi of [^68Ga]DOTA-labeled heterobiligand was administered intravenously (i.v.) via the tail vein of each mouse. Dynamic PET imaging was performed from 0-1 h, followed by acquisition of static PET images at 2 h and 4 h post-injection. CT scans were acquired for anatomical reference. Imaging was performed on an Inveon microPET/CT small animal scanner. The PET signal was quantitated by three-dimensional ROI analysis and represented as percent injected dose (% ID) vs. time ([…]) for major organs including tumor, liver, heart, lung, bladder, and kidney.
Evaluation of a folate-hshta (SEQ ID NO:6) Nterm heterobiligand bearing both an albumin binder and DOTA chelator in PET was a priority, given that DOTA can accommodate both ^68Ga for imaging and ^177Lu for radiotherapy. A 200 μCi dose of ^68Ga-labeled folate-hshta-PEG3-Lys(MPBA)-Lys(DOTA) (SEQ ID NO:6) (compound #2809) was injected i.v. via tail vein in an NSG mouse bearing s.c. human OVCAR3 (FOLR1+) tumor. ^68Ga PET/CT imaging scans were performed at 0-1 h (dynamic), 2 h (static), and 4 h (static). […] The time-course biodistribution of ^68Ga-labeled folate-hshta-PEG3-Lys(MPBA)-Lys(DOTA) (SEQ ID NO:6) (compound #2809) was calculated to quantify the uptake in major organs including the tumor (FIG. 17). […] Larger tumors (490 mm^3) were also evaluated with the ^68Ga-chelated PET probe.
Images were captured for compound #1307 at the time points 5 min, 10 min, 15 min, 30 min, 1 h, 2 h, and 4 h. PET/CT images were taken following the injection of 4 female NSG mice with ^68Ga-chelated compound #2809. […] Images for mouse 4 are shown in FIG. 23 (Compounds #1307 and #2809) and FIG. 24 (Compound #1307).
Biodistribution was initially evaluated by PET imaging, as the time frame for a significant portion of clearance is roughly similar to the time frame of PET imaging experiments. Indi ^68Ga-7327 was injected via the tail vein into OVCAR3 (FOLR+) tumor implanted female NSG mice once the tumor size reached 200 mm^3, and microPET/CT scans were acquired at 5 min, 10 min, 15 min, 30 min, 1 h, 2 h, and 4 h post-injection. PET images were corrected for CT-based photon attenuation, detector normalization and radioisotope decay and converted to units of percent injected dose per cc (% ID/cc).

Where [6] appears, read: 29.6 MBq group, Day 7 post-injection.

Numbered stars: 1 amine (or outer) side, 2 acyl side, 3 side chain; on linkers, the order of the positions; unused ones are H or OH. Bridge positions count the residues as written; N and C are the ends. Square brackets hold non-standard residues; d marks the D form. Triazole bridges read from a SMILES are 1,4-linked. Peptide text beside a SMILES is read from it. * marks the point of attachment. DOTA = O=C(O)CN1CCN(CC(=O)O)CCN(CC(=O)*)CCN(CC(=O)O)CC1; Pteroyl = Nc1nc2ncc(CNc3ccc(C(=O)*)cc3)nc2c(=O)[nH]1; Butanoyl(4-(4-I-phenyl)) = O=C(CCCc1ccc(I)cc1)*; Butanoyl(4-(4-MePh)) = Cc1ccc(CCCC(=O)*)cc1; Lys(N3) = [N-]=[N+]=NCCCC[C@H](N)C(=O)O; γGlu = O=C(O)[C@H](CCC(=O)[*:2])N[*:1]; X3 = O=C(CO/N=C/c1ccc(F)cc1)*; AEEEA = NCCOCCOCCOCC(=O)O; Pra = C#CC[C@H](N)C(=O)O

Procedure for Plasma stability, human: Plasma was thawed in a 37° C. water bath. Residual clots were removed via centrifugation at 4000 rpm for 5 minutes. The pH of the plasma was adjusted to 7.4 if required. Test articles were diluted to 100 μM by diluting a 1 mM working solution (in DMSO) with 45% methanol in water. To 98 μL of plasma was added 2 μL of the 100 μM solution, resulting in 2 μM final concentration of the test article. Samples were incubated at 37° C. in a water bath. At the indicated time points (0, 10, 30, 60, 120 minutes) 100 μL of 4% H3PO4 was added followed by 800 μL of stop solution (200 ng/mL tolbutamide and 200 ng/mL labetalol in 100% acetonitrile). The samples were centrifuged and the plasma protein-free supernatant (100 μL) was subjected to LC-MS/MS analysis.

Broadly, the fraction unbound is free concentration divided by total concentration. A higher fraction unbound goes with weak binding. For orientation: half-life means the time needed for the level to fall by half in the phase considered. Low readings indicate rapid decline, high ones slow decline. `C[C@H](O)[C@H]1NC(=O)[C@@H](Cc2c[nH]cn2)NC(=O)[C@@H](CO)NC(=O)[C@@H](Cc2c[nH]cn2)NC(=O)[C@@H](NC(=O)CC[C@H](NC(=O)c2ccc(NCc3cnc4nc(N)[nH]c(=O)c4n3)cc2)C(=O)O)Cc2cn(nn2)CCCC[C@@H](C(=O)NCCOCCOCCOCC(=O)N[C@@H](CCCCNC(=O)CO/N=C/c2ccc(F)cc2)C(N)=O)NC(=O)[C@@H](C)NC1=O` [compound #2, Fol-hshta-PEG3-Lys(FB)] ({Pteroyl-γGlu}-[Pra][dH][dS][dH][dT][dA][Lys(N3)][AEEEA]K(X3)-NH2; triazole 1-7): the figures for the recovery in series [1] and in series [2] were 115% and 85%, respectively. The unbound share (fraction unbound) was determined as 0.798 in series [1] (mouse, plasma) and 0.57 in series [2] (human, plasma). In addition, the half-life is more than 289 min in the series “Plasma stability, human” (Plasma Stability (t 1/2)) and more than 289 min in the series “Plasma stability, mouse” (mouse, Plasma Stability (t 1/2)).

Turning to `Cc1ccc(CCCC(=O)NCCCC[C@H](NC(=O)[C@@H]2CCCCn3cc(nn3)C[C@H](NC(=O)CC[C@H](NC(=O)c3ccc(NCc4cnc5nc(N)[nH]c(=O)c5n4)cc3)C(=O)O)C(=O)N[C@H](Cc3c[nH]cn3)C(=O)N[C@H](CO)C(=O)N[C@H](Cc3c[nH]cn3)C(=O)N[C@H]([C@H](C)O)C(=O)N[C@H](C)C(=O)N2)C(=O)NCC(=O)N[C@@H](Cc2ccccc2)C(=O)N[C@@H](CCCCNC(=O)CN2CCN(CC(=O)O)CCN(CC(=O)O)CCN(CC(=O)O)CC2)C(=O)O)cc1` [^177Lu-#6305, metal not drawn] ({Pteroyl-γGlu}-[Pra][dH][dS][dH][dT][dA][Lys(N3)]K(Butanoyl(4-(4-MePh)))GFK(DOTA)-OH; triazole 1-7), the body weight result in series [3] (doses of 29.6, 37, 111 and 185 MBq, first dose) is reported as “weight loss after the first dose”; in series [3] (single dose of 14.8, 18.5 and 22.2 MBq), “only minimal loss in body weight”. Moreover, the “tolerability of second dose” value in series [3] (second dose 7 days after the first (29.6-185 MBq)) and in series [3] (second dose administered 21 days (14.8-22.2 MBq)) was “not tolerated” each time. Besides, the kidney radioactivity stood at 414 CPM/g in series [4] (9.25 MBq group) and 653 CPM/g in series [4] (14.8 MBq group). In addition, the liver radioactivity in series [4] (9.25 MBq group) is given as 685 CPM/g; in series [4] (14.8 MBq group), 1,264 CPM/g. The tumor radioactivity is given as 33 CPM/g in series [4] (9.25 MBq group) and 60 CPM/g in series [4] (14.8 MBq group). Also, the liver/kidney ratio in series [4] (14.8 MBq group on Day 28) was found to be 1.94; in series [4] (29.6 MBq group on Day 7), 0.27. Moreover, the “radioactivity in the kidney” value in series [4] (setting [6]) was 394,834 CPM/g. For the same compound, in series [4] (setting [6]), the “radioactivity in the liver” value is given as 107,374 CPM/g. In series [4] (setting [6]), the “radioactivity in the tumor” value is reported as 42,674 CPM/g. The tissue to tissue ratio at 672 h in series [4] (mouse, tumor and kidney, total radioactivity, 14.8 MBq group, Day 28) worked out at 0.093. For the same compound, the tissue to tissue ratio at 168 h in series [4] (mouse, tumor and kidney, total radioactivity, 29.6 MBq group, Day 7) came to 0.108. Also, the body weight change result in the series on OVCAR3 xenografts (9.25 MBq and 14.8 MBq) is recorded as “No significant body weight change”; in the series with OVCAR3 xenografts (29.6 MBq) it was “substantial body weight decrease”. In the series with OVCAR3 xenografts (29.6 MBq, 7 days after injection), this compound gave a body weight loss of 20%.

For `C[C@H](O)[C@H]1NC(=O)[C@@H](Cc2c[nH]cn2)NC(=O)[C@@H](CO)NC(=O)[C@@H](Cc2c[nH]cn2)NC(=O)[C@@H](NC(=O)CC[C@H](NC(=O)c2ccc(NCc3cnc4nc(N)[nH]c(=O)c4n3)cc2)C(=O)O)Cc2cn(nn2)CCCC[C@@H](C(=O)N[C@@H](CCCCNC(=O)CCCc2ccc(I)cc2)C(=O)NCC(=O)N[C@@H](Cc2ccccc2)C(=O)N[C@@H](CCCCNC(=O)CN2CCN(CC(=O)O)CCN(CC(=O)O)CCN(CC(=O)O)CC2)C(=O)O)NC(=O)[C@@H](C)NC1=O` [^68Ga-chelated compound #1307, metal not drawn] ({Pteroyl-γGlu}-[Pra][dH][dS][dH][dT][dA][Lys(N3)]K(Butanoyl(4-(4-I-phenyl)))GFK(DOTA)-OH; triazole 1-7), in series [5], the “heart exposure compared to compound #2809” value is “less than two-fold increase”, the kidney absorption entry is on record as “very low kidney absorption”, the “kidney dose compared to compound #2809” value was “seven-fold reduction” and the “lung accumulation compared to compound #2809” value is recorded as “greater than three-fold increase”.

For the compound `CC(C)[N+](C)(CCOC(=O)C1c2ccccc2Oc2ccccc21)C(C)C` [Propantheline bromide, reference compound], the half-life at 2 μM in “Plasma stability, human” (pH 7.4, Plasma Stability (t 1/2)) was 11.6 min; in the series “Plasma stability, mouse” (CD-1, mouse, pH 7.4, Plasma Stability (t 1/2)), 44.8 min.
